Assay results from the supplement of paper PMC7125110.
± gives the standard error. Fewer inactive variants are shown than the library holds.

B1: glmS ribozyme (parent)
chain: AUAAAAGCGCCAGAACUACAGAAAUGUAGUUGACGAGGAGGAGGUUUAUCGAAUUUUCGGCGGAUGCCUCCAAA

Variants of: B1
Assay: self-cleavage kobs at 2500 uM GlcN6P; higher = faster cleavage; RNA array
Conditions: with glucosamine-6-phosphate
Method in brief: (§1)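 Ribozyme variants carrying barcodes were transcribed in situ on sequenced MiSeq chips by E. coli RNA polymerase and tracked at 37 °C with a hybridised Cy3 probe. They were exposed to 40 μM to 10 mM glucosamine-6-phosphate in HEPES/KCl/Mg(OAc)2 buffer. kobs came from exponential decay fits of normalised per-tile medians, and kcat and KM from weighted Michaelis–Menten fits.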

self-cleavage kobs at 2500 uM GlcN6P, 0.000169 ± 5.3e-05 s⁻¹:
AUAAAAGCGCCAGAGCUACAGAAAUGUAUUUGACGAGGGGGAGGUUUAUCGAAUUUUCGGCGGAUGUCUCCAAA

self-cleavage kobs at 2500 uM GlcN6P, 3.93e-05 ± 1.6e-05 s⁻¹:
AUAAAAGCGCCAGAACUACAGAAAUGUAGUUGACGAGGAGGAGGUUCAUCGAAUUUUAGGCGGAUGCUUCCAAA

self-cleavage kobs at 2500 uM GlcN6P, 3.66e-05 ± 9.2e-06 s⁻¹:
AUAAAAGCGCCAGAACUACAGAAAUGUAGUUGACGAGGUGGAGGUUUAUCGAAUUCUCGGCGGAUGGCUCCAAA

self-cleavage kobs at 2500 uM GlcN6P, 4.27e-05 ± 1.7e-05 s⁻¹:
AUAAAAGCGCCAGACCUACAGAAAUGUAGUUGACGAGGAGGAGGUUUAUCGAAUUUUCGGCGGAUUGCUCCAAA

self-cleavage kobs at 2500 uM GlcN6P, 6.29e-05 ± 2.8e-05 s⁻¹:
AUAAAAGCGCCAGAACUACAGAAAUGUAUUUGACGAGGAGGAGGCGUAUCGAAUUUUCGGCGGAUGCCUCCAAA

self-cleavage kobs at 2500 uM GlcN6P, 0.000334 ± 9.7e-05 s⁻¹:
AUAAAAGCGCCAGAACUACAGAAAUGUAGUUGACGAGGAGGAGGUUGAUCGAAUUUUAUGCGGAUGCCUGCAAA

self-cleavage kobs at 2500 uM GlcN6P, 5.26e-05 ± 2.3e-05 s⁻¹:
AUAAAAGCGCCAGAACUACAGAAAUGUAGUUGACGAGGAGGAGGUUUAUCGAAGUUUGGGCGGGUGCCUCUAAA

self-cleavage kobs at 2500 uM GlcN6P, 4.06e-05 ± 2e-05 s⁻¹:
AUAAAAGCGCCAGAACUACAGAAAUGUAGUUGACGAGGUGUAGGUUUAUCGAAUUUUCGGCGGAUGCCUCAAAA

self-cleavage kobs at 2500 uM GlcN6P, < 1e-05 s⁻¹:
AUAAAAGCGCCAGAACUACAGAAAUGUAGUUGAAGAGGAGGAGGUUUAUCGAAUUUUCGGCGGAUGCCACCAAA
AUAAAAGCGCCAGAACUACAGAAAUGUAGUUUUCGAGGAGUAGGUUUAUCGAAUUUUCGGCGGAUGCCUCCAAA
AUAAAAGGGCCAGAACUACAGAAAUGUAGUUGUCGAGGAGGAGGUUUAUCGAAUUGUCUGCGGAUGCCUCCAAA
AUAAAAGCGCCAGAUGUACAGAAAUGUAGAUGGCGAGGAGGAGGUUUAUCGAAUUUUCAGCGGAUGCCUCCAAA
AUAAAAGCGCCAAAACUACAGAAAUGUAGUUGACGAGGAGGAGUAUUAUCGAAUUUACGGCGGAUGCCCCCAAA
AUAAAAGCACCAGAGCUACAGAAAUUUAGUUGACGAGGAGGAGGUUUAUCGAAUUUUCGGCGGAUGCCUCCAAA
AUAAAAGCGCCAGAACUACAGAAAUGUAGUUGGCGAGGAGGAGAUUUAGCGAAUUUUCGGCGGAUGCCUCCAAA
AUAAAUGCGCCAUAACUACAGAAAUGUAGUUGACGAGGAGGAGCUUUAUCGAAUUUUCGGCGGAUGCCUCCAAA
AUAAAAGCCCCAGAACUACAGAAAUGUAGUUGACGAGGAGGCGGUUUAUCGCAUUUUCGGCGGAUCCCUCCAAA
AUAAAAGCGCCAGAACUACAGAAAUGUAGUUGAAGAUGUGGAGGUUUAUCGAAUUUCCGGCGGAUGACUCCAAA
AUAAAAGCGCCAGAACUACAGAAAUGUAGUUGAGCAGGAGGAGGUUUAUCGAAUUUUCGGCGGAUACCUCCAAA
AUAAAAGCGGCGGAACUACAGAAAUGUAGUUGACGAGGAGGAGGUUGAUCGAACUUUCGGCGGAUGCUUCCAAA
AUAAAGGCGCGAGAACUACAGAAAUGUAGUUGUCGAGGAGGAGGUUUAUCGAAUUUUCCGCGGAUGCCUCCAAA
AUAAAGGCGCCAGAACUACAGAAAUGUAGUUCACGAGGAGGAGGUUUAUCGAAUUUUCGGCGGAUGUCUCGAAA
AUAAAUGCGCCAGAACUACAGAAAUGUAGUUGACGAGGAGGAGGUUUAUAUAAUUUUCGGCGGAUGCCUCCAAA
AUAAAAGGGCCAGAACUACAUAAAUGUAGUUGACGAGGAGGAGGUUUAUCGAAUGUUCGUCGGAUGGCUCCAAA
AUAAAAGCGCCAGAACUACAGAAAUGUAGAUGACGAGGAGUAGGUUUAUCGAAUGUUCAGCGGAUGCCACCAAA
AUAAAAGCCCCAGACCUACAGAAAUGUAGUUGACGAGGAGGAGAUUUAUCGAAUUUUCGUGGGAUGCCUCCAAA
AUAAAAGCGCCAGAACUACAGAAAUGUAGUUGCCGAUGAGGAGGUUUAUCGAAUUUACUGCGGAUGCCUCCAAA
AUAAAAGCGCCGGAACUACAGAAAUGUAGUUGACGAGGAGGAGGUUUAUCGAAUUUUCGGCGGUUGGCUCCAAA
AUAAAAGCGCCAGAACUACAGAAAUGUAGUUCACGAAGAGGCGGUUUAUCGACUUUUCGGCGGAUGCCUCCAAA
AUAAAAGCGCCAUAACUACAGAAAUGUAGUUGACGAGGAGGAUGUUUAUCGAAUUUUCGGGGGAUGCCUCCAAA
AUAAACGGGCCAGAACUACAGAAAUGUAGUUGACGAGGAGGAGGUUUAUCGAAUUUUCGGCGGAUACCUUCAAA
AUAAACGCGCCAGAACUACAGAAAUGUAGUUGACGAGGCGGAGGUUUAUCGAAUUUUCGUCGGAUGCCUCCAAA
AUAAAAGCGCCAGAACUACAGAAAUGUAGUUGGCGAGGAGGAGGUUUAUCGGAUUUUCGGCAGAUGCCUCCAAA
AUAAAAGCGCCAGAACUACAGAAAUGUAGUUGACGAGCAGGAGGUGUAUCGAAUUUUCGGCGGAUGCGUCCAAA

Variants of: B1
Assay: self-cleavage kobs at 10000 uM GlcN6P; higher = faster cleavage; RNA array
Conditions: with glucosamine-6-phosphate
Method in brief: as §1

self-cleavage kobs at 10000 uM GlcN6P, 4.18e-05 ± 1.4e-05 s⁻¹:
AUAAAAGCGCCAGAACUACAGAAAUGUAGUUGACGAGGAGGAGGUUUAUCGAAGUUUGGGCGGGUGCCUCUAAA

self-cleavage kobs at 10000 uM GlcN6P, < 1e-05 s⁻¹:
AUAAAAGCGCCGGAACUACAGAAAUGUAGUUGACGAGGAGGAGGUUUAUCGAAUUUUCGGCGGUUGGCUCCAAA

self-cleavage kobs at 10000 uM GlcN6P, 0.000165 ± 4.9e-05 s⁻¹:
AUAAAAGCGCCAGACCUACAGAAAUGUAGUUGACGAGGAGGAGGUUUAUCGAAUUUUCGGCGGAUUGCUCCAAA
